Experimental data published in patent US20180155451A1 (published 2018).
Numbering of substitutions follows the chain as printed. Names and notes keep the numbering of the source. Where two headings read alike, the source gives them in different places. Each block holds one binder with its values, some of them ahead of it.

What was measured:
[1] = target: T1, FcγRIIIa extracellular domain with C-terminal His tag (human, UniProt P08637 17-208); test: SPR (Biacore), ratio of KD values for FcγRIIIa
T1 construct: extracellular domain; also called FcgRIIIa; CD16A
Excerpt: GpH7-A57 (SEQ ID NO: 40) resulting from the introduction of all of S239D, A330L, and I332E into GpH7-A5; GpH7-B78 (SEQ ID NO: 41) resulting from the introduction of all of S239D, A330L, and I332E into GpH7-B3; GpH7-TA7 (SEQ ID NO: 31) resulting from the introduction of all of L234Y, G236W, and S298A into GpH7-A5; and GpH7-TA45 (SEQ ID NO: 32) resulting from the introduction of all of L234Y, G236W, and S298A into GpH7-B3. […] The prepared antibodies were compared for the FcγRIIIa-binding activity using, as an indicator, KD for FcγRIIIa that was determined according to the method described in Reference Example 2.
(§1) Analysis of interaction between objective antibody and the FcγR was carried out using Biacore T100 (GE Healthcare). HBS-EP+ (GE Healthcare) was used as the running buffer, and the measurement temperature was set to 25° C. Chips produced by immobilizing the antigen peptide by the amine coupling method to a Series S Sencor Chip CM5 (GE Healthcare), or alternatively, chips produced by allowing preliminarily biotinylated antigen peptides to interact with and immobilize onto a Series S Sensor Chip SA (certified) (GE Healthcare) were used. Antibodies of interest were captured onto an antigen peptide-immobilized chip, and allowed to interact to each FcγR diluted with running buffer. To regenerate and repeatedly use the chip, the antibodies captured on the chip were washed off by reacting 10 mM glycine-HCl, pH 1.5.

[2] = target: T1, FcγRIIIa extracellular domain with …; test: SPR (Biacore), antibody captured on antigen peptide chip, FcγR as analyte
Method: Specifically, GpH7-TA7 and GpH7-TA45 (SEQ ID NO: 32) resulting from the introduction of L234Y, G236W, and S298A into GpH7-A5 and GpH7-B3, respectively, were prepared according to the method described in Reference Example 1. […] These antibodies were compared for the FcγRIIIa binding according to the method described in Reference Example 2 (Table 10).
as §1

[3] = target: T1, FcγRIIIa extracellular domain with …; test: as above; remark: listed apart in the source
Method: GpH7-TA8 (SEQ ID NO: 33) and GpH7-B12 (SEQ ID NO: 12) resulting from the introduction of P329R into GpH7-TA7 and GpH7-B3, respectively, were prepared according to the method described in Reference Example 1.
as §1

[4] = target: T1, FcγRIIIa extracellular domain with …; test: SPR (Biacore), antibody captured, FcγRIIIa as analyte, 1:1 Langmuir kinetic fit
Method: The prepared antibodies were compared for the FcγRIIIa-binding activity using, as an indicator, KD for FcγRIIIa that was determined according to the method described in Reference Example 2.
as §1
The FcγR-binding activity of each antibody was assessed primarily using as an indicator the FcγR-binding activity and dissociation constant for FcγR.

FcgRIa [5] = target: T2, FcgRIa (human, UniProt P12314 16-292); test: SPR (Biacore), antibody captured on chip, FcgR extracellular domain as analyte
T2 construct: extracellular domain; Expressed in FreeStyle293 cells and purified; used as analyte in Biacore; also called FcγRIa; FcγRI; not shown: His tag attached to the C terminus

FcgRIIa R [6] = target: T3, FcgRIIa R (human, UniProt P12318 34-217); test: as above
T3 construct: extracellular domain; also called FcγRIIa R; FcγRIIa type R; not shown: His tag attached to the C terminus
T3 sequence (looked up): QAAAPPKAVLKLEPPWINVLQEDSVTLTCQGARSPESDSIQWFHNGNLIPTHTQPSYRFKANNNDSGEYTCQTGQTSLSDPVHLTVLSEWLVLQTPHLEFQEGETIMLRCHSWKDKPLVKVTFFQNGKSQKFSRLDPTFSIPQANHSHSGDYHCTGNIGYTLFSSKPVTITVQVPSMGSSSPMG

FcgRIIa H [7] = target: T4, FcgRIIa H (human, UniProt P12318 34-217); test: as above
T4 construct: extracellular domain; also called FcγRIIa H; FcγRIIa type H; not shown: His tag attached to the C terminus
T4 sequence (looked up): T3 sequence (looked up) with R134H

FcgRIIb [8] = target: T5, FcgRIIb (human, UniProt P31994 43-217); test: as above
T5 construct: extracellular domain; Expressed in FreeStyle293 cells and purified; used as analyte in Biacore; also called FcγRIIb; CD32B; not shown: His tag attached to the C terminus
T5 sequence (looked up): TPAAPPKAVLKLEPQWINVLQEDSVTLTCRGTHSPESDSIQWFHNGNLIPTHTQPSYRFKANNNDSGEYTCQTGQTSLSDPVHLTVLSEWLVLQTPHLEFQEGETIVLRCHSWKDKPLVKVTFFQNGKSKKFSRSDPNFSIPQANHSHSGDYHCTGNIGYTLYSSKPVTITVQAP

FcgRIIIa F [9] = target: T6, FcgRIIIa F (human, UniProt P08637 17-208); test: as above
T6 construct: extracellular domain; also called FcγRIIIa F; not shown: His tag attached to the C terminus

FcgRIIIa V [10] = target: T7, FcgRIIIa V (human, UniProt P08637 17-208); test: as above
T7 construct: extracellular domain; also called FcγRIIIa V; not shown: His tag attached to the C terminus

FcgRIa [11] = target: T2, FcgRIa; test: as above; remark: listed apart in the source
Method: (§2) Analysis of interaction between obj ective antibody and the FcγR was carried out using Biacore T100 (GE Healthcare), Biacore T200, Biacore A100, and Biacore 4000. HBS-EP+ (GE Healthcare) was used as the running buffer, and the measurement temperature was set to 25° C. Chips produced by immobilizing the antigen peptide by the amine coupling method to a Series S sensor Chip CM5 (GE Healthcare), chips produced by allowing preliminarily biotinylated antigen peptides to interact with and immobilize onto a Series S Sensor Chip SA (certified) (GE Healthcare), chips produced by immobilizing Protein L (ACTIGEN, BioVision) to Series S Sencor Chip CM5 (GE Healthcare), or chips produced by immobilizing Protein A/G (Thermo Scientific) to Series S Sencor Chip CM5 (GE Healthcare) were used. Antibodies of interest were captured onto these chips, and allowed to interact to each FcγR diluted with running buffer. To regenerate and repeatedly use the chip, the antibodies captured onto the chip were washed off by reacting 10 mM glycine-HCl, pH 1.5.

FcgRIIa R [12] = target: T3, FcgRIIa R; test: as above; remark: listed apart in the source
Method: as §2

FcgRIIa H [13] = target: T4, FcgRIIa H; test: as above; remark: listed apart in the source
Method: as §2

FcgRIIb [14] = target: T5, FcgRIIb; test: as above; remark: listed apart in the source
Method: as §2

FcgRIIIa F [15] = target: T6, FcgRIIIa F; test: as above; remark: listed apart in the source
Method: as §2

FcgRIIIa V [16] = target: T7, FcgRIIIa V; test: as above; remark: listed apart in the source
Method: as §2

T2 sequence (P12314 16-292): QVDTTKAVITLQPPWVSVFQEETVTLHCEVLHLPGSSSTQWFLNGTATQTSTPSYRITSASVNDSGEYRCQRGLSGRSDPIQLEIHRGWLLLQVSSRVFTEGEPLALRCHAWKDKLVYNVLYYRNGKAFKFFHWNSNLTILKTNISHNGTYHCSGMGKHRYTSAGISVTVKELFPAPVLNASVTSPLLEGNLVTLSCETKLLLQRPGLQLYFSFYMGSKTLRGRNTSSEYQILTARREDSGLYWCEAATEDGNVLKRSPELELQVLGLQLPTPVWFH
T7 sequence (P08637 17-208 F176V limits assumed): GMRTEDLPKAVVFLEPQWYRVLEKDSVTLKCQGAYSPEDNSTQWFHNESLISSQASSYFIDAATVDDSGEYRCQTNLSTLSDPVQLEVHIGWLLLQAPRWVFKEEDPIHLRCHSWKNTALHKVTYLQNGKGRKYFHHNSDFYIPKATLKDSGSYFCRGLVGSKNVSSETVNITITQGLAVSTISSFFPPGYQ
T1 sequence (P08637 17-208): as the sequence (P08637 17-208 F176V limits assumed) above, with V160F counted along it
T6 sequence (P08637 17-208): as the sequence (P08637 17-208 F176V limits assumed) above, with V160F counted along it

B1: GpH7-A5/GpH7-B3/GpL16-k0 (antibody, human IgG1, kappa)
heavy 1: not shown
heavy 2: not shown
light: DIVMTQSPLSLPVTPGEPASISCQASESLVHSNRNTYLHWYLQKPGQSPQLLIYKVSNRFSGVPDRFSGSGSGTDFTLKISRVEAEDVGVYYCSQNTHVPPTFGQGTKVEIERTVAAPSVFIFPPSDEQLKSGTASVVCLLNNFYPREAKVQWKVDNALQSGNSQESVTEQDSKDSTYSLSSTLTLSKADYEKHKVYACEVTHQGLSSPVTKSFNRGEC
notes: also called HeCon Ab; control heterodimerized antibody
KD ratio 1 (KD of GpH7-G1d/GpL16-k0 divided by KD of the antibody) [1]: 0.75 fold
KD ratio 2 (KD of GpH7-A5/GpH7-B3/GpL16-k0 divided by KD of the antibody) [1]: 1 fold
FcγR BINDING ACTIVITY (relative FcγRIIIa binding) [2]: 100 relative, GpH7-A5/GpH7-B3/GpL16-k0 = 100
FcγRIIIa BINDING ACTIVITY (relative) [3]: 100 relative, GpH7-A5/GpH7-B3/GpL16-k0 = 100
Kd [4]: 1600 nM

B4: H240-A5E/H240-B3E/L73-k0 (antibody, human IgG1, kappa)
heavy 1: not shown
heavy 2: not shown
light: DIQMTQSPSSLSASVGDRVTITCRASQDIHKYIAWYQQKPGQAPRLLIQYTSTLQPGVPSRFSGSGSGTDYTFTISSLQPEDIATYYCLQYEQLRTFGGGTKVEIKRTVAAPSVFIFPPSDEQLKSGTASVVCLLNNFYPREAKVQWKVDNALQSGNSQESVTEQDSKDSTYSLSSTLTLSKADYEKHKVYACEVTHQGLSSPVTKSFNRGEC
notes: Anti-EREG IgG1 control: H240-G1dE with D356K/H435R in one H chain and K439E in the other, no FcgR-related alterations
Kd (FcgRIa [11]): 0.61 nM
Kd (FcgRIIa R [12]): 940 nM
Kd (FcgRIIa H [13]): 910 nM
Kd (FcgRIIb [14]): 4300 nM
Kd (FcgRIIIa F [15]): 1600 nM
Kd (FcgRIIIa V [16]): 330 nM

The next lines start with the values.

KD ratio 1 (KD of GpH7-G1d/GpL16-k0 divided by KD of the antibody) [1]: 3.8 fold
KD ratio 2 (KD of GpH7-A5/GpH7-B3/GpL16-k0 divided by KD of the antibody) [1]: 5.1 fold
FcγR BINDING ACTIVITY (relative FcγRIIIa binding) [2]: 210 relative, GpH7-A5/GpH7-B3/GpL16-k0 = 100
FcγRIIIa BINDING ACTIVITY (relative) [3]: 210 relative, GpH7-A5/GpH7-B3/GpL16-k0 = 100
Kd [4]: 320 nM
B2: GpH7-TA7/GpH7-B3/GpL16-k0 (antibody, human IgG1, kappa)
heavy 1: QVQLVQSGAEVKKPGASVTVSCKASGYTFTDYEMHWIRQPPGEGLEWIGAIDPKTGDTAYSESFQDRVTLTADKSTSTAYMELSSLTSEDTAVYYCTRFYSYTYWGQGTLVTVSSASTKGPSVFPLAPSSKSTSGGTAALGCLVKDYFPEPVTVSWNSGALTSGVHTFPAVLQSSGLYSLSSVVTVPSSSLGTQTYICNVNHKPSNTKVDKKVEPKSCDKTHTCPPCPAPEYLWGPSVFLFPPKPKDTLMISRTPEVTCVVVDVSHEDPEVKFNWYVDGVEVHNAKTKPREEQYNATYRVVSVLTVLHQDWLNGKEYKCKVSNKALPAPIEKTISKAKGQPREPQVYTLPPSRKELTKNQVSLTCLVKGFYPSDIAVEWESNGQPENNYKTTPPVLDSDGSFFLYSKLTVDKSRWQQGNVFSCSVMHEALHNRYTQKSLSLSP
heavy 2: not shown
light: B1 light
notes: Heterodimerized anti-glypican-3 IgG1 variant

Kd (FcgRIa [5]): 0.23 nM
Kd (FcgRIIa R [6]): 880 nM
Kd (FcgRIIa H [7]): 660 nM
Kd (FcgRIIb [8]): 6000 nM
Kd (FcgRIIIa F [9]): 1400 nM
Kd (FcgRIIIa V [10]): 310 nM
Kd (FcgRIa [11]): 0.23 nM
Kd (FcgRIIa R [12]): 880 nM
Kd (FcgRIIa H [13]): 660 nM
Kd (FcgRIIb [14]): 6100 nM
Kd (FcgRIIIa F [15]): 1400 nM
Kd (FcgRIIIa V [16]): 310 nM
B3: H240-G1d/L73-k0 (antibody, human IgG1, kappa)
heavy: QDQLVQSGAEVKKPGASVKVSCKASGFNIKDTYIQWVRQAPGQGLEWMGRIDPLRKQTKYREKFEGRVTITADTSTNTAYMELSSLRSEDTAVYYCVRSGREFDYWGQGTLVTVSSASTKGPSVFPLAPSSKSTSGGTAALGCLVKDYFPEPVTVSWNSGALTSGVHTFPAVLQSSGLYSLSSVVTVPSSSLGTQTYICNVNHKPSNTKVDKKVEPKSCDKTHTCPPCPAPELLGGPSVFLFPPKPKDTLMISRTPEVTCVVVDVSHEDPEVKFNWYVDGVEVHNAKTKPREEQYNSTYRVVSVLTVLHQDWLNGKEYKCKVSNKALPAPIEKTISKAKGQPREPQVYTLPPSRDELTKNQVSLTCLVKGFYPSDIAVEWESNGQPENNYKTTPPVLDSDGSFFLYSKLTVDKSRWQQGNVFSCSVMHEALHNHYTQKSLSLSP
light: B4 light
notes: Anti-EREG native IgG1 (G1d constant region lacks the C-terminal Gly and Lys); also called native IgG1
